Assay [1] concerns the target 生物素化的IL-17A of the ACRO Biosystems IL-17A[Biotinylated]:IL-17RA Inhibitor Screening ELISA Kit (EP-139) (UniProt Q16552). Kind of assay: blocking ELISA kit: IL-17RA coated, biotinylated IL-17A; G4-H10-MSC supernatant diluted 5-fold; inhibition = [OD450 positive well - OD450 sample well]/OD450 positive well.
For assay [2], the target named is T1, IL-17A重组蛋白(抗原), IL-17 antigen with a C-terminal 6×His tag, expressed in E. coli BL21 (human, UniProt Q16552 24-155, limits assumed).
T1 sequence: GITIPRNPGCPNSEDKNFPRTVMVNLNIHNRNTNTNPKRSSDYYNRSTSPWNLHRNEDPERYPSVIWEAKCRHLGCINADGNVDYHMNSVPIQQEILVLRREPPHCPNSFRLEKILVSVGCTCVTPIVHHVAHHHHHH
Kind of assay: cell-based or functional assay.

The next assay has as its target T2, Biotin-IL-17A-His (UniProt Q16552 24-155, limits assumed, biotinylated (Biotin-IL-17A-His); site not stated).
T2 construct: not shown: His tag
T2 sequence (looked up): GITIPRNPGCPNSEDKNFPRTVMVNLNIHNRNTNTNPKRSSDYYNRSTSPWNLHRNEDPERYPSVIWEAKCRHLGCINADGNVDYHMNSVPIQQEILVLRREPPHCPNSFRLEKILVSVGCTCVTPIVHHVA
Kind of assay: ELISA: antibody coated at 2 ug/mL; Biotin-IL-17A-His titrated from 10 ug/mL, 5-fold, 7 points; HRP-streptavidin; OD450.

B1: IL-17Nb secreted by G4-H10-MSC (G4-H10:Fc融合蛋白, VHH-(GGGGS)3-VHH-IgG4 Fc) (Fc fusion)
chain: QVQLVESGGGLVQPGGSLRLSCAASGEKLDYFAIGWFRQAPGKEREVVSCVTSSGSSTNYLSSVKDRFTISIDNAKNTVYLQMNSLKPEDTAIYYCASTILLCSDYISAFGTWGQGTQVTVASGGGGSGGGGSGGGGSEVQLVESGGGLVQPGGSLRLSCAASGFSIHIYAMGWYRQAPGKQRELVATITRGGVTNNADSVKGRFTISRDNAKNTAYLQMNSLKPEDTAVYYCNAGGTNGGYWGQGTQVTVSSAPEFLGGPSVFLFPPKPKDTLMISRTPEVTCVVVDVSQEDPEVQFNWYVDGVEVHNAKTKPREEQFNSTYRVVSVLTVLHQDWLNGKEYKCKVSNKGLPSSIEKTISKAKGQPREPQVYTLPPSQEEMTKNQVSLTCLVKGFYPSDIAVEWESNGQPENNYKTTPPVLDSDGSFFLYSRLTVDKSRWQEGNVFSCSVMHEALHNHYTQKSLSLSLGK
For the molecule B1, the 结合抑制率 (IL-17A/IL17RA) in assay [1] turned out to be 60%.

B2: 阳性对照抗体Ixekizumab (antibody, human IgG4 S228P, kappa, V domains shown)
VH: QVQLVQSGAEVKKPGSSVKVSCKASGYSFTDYHIHWVRQAPGQGLEWMGVINPMYGTTDYNQRFKGRVTITADESTSTAYMELSSLRSEDTAVYYCARYDYFTGTGVYWGQGTLVTVSS
VL: DIVMTQTPLSLSVTPGQPASISCRSSRSLVHSRGNTYLHWYLQKPGQSPQLLIYKVSNRFIGVPDRFSGSGSGTDFTLKISRVEAEDVGVYYCSQSTHLPFTFGQGTKLEIKR
notes: also called 阳性抗体
In the case of B2, the “IC50, 阻断Human IL-17A蛋白激活293F-IL-17RA-IL-17Rc-ACT1-NFκB-Luc报告基因细胞株” value in assay [2] was 2.23 nM. This molecule returned an EC50 in the assay with Biotin-IL-17A-His of 10.1 µg/mL.

The values are drawn from patent CN117866904A (BEILAI PHARMACEUTICAL CO LTD, dated 2024).
